Results published in patent US20170158753A1 (INTEGRATED BIOTHERAPEUTICS, published 2017).

Assays:
[1] = target: MARV GP[change] (Marburg virus, UniProt P35253)
[2] = target: T1, EBOV GP[change] (Ebola virus, UniProt Q05320)
[3] = target: T1, EBOV GP[change]; remark: listed apart in the source

| Binder | Kd [1] [nM] | Kd [2] [nM] | EC50 [3] [µg/mL] |
| --- | --- | --- | --- |
| m5E4 (antibody, V domains shown) VH: EVQLQESGGDLVKPGGSLKLSCAASGFTFSSYTMSWVRQTPERRLEWVATITSGGTYTYYPDSVKGRFTISRDNAKNTLYLQMTSLKSEDTAMYYCTREDGYYFSYWGQGTLVTVSA VL: not shown | 30 | 12 | – |
| m2E4 (antibody, V domains shown) VH: EVQLQESGPELVKPGASVKISCKASGYSFTGYYMNWVKQSPEKSLEWIGEINPSTGGTTYNQKFKAKATLTVDKSSSTAYMQLKSLTSEDSAVYYCVRYSHYYGSGSWYFDVWGTGTTVTVSS VL: DIQMTQSPASLSASVGETVTITCRASENIYSNLAWYQQKQGKSPQLLVNAATNLADGVPSRFSGSGSGTQFSLKINSLQPEDFGSYYCQHFYVTPYTFGSGTKLEIKR | – | – | 1.27 |
